Results as given in patent publication US20240368263A1 (PROMETHEUS BIOSCIENCES, published 2024).
Substitutions are numbered along the chain they refer to. In names and notes the source's numbering stands.

T1: human TL1A (endogenous, human whole blood assay) (human, UniProt O95150 1-251, limits assumed)
T1 sequence (looked up): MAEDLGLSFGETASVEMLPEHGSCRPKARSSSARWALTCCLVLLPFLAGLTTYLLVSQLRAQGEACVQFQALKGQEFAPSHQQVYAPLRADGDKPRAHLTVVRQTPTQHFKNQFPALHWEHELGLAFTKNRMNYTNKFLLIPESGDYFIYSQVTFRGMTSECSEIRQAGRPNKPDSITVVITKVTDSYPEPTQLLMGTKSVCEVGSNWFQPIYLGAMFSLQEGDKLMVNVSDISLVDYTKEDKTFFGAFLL

T2: human TL1A (Fitzgerald, Prod. #30R-AT070) (human, UniProt O95150 72-251, limits assumed, biotinylated with EZ-Link Sulfo-NHS-LC-Biotin where used as soluble antigen)
T2 construct: also called TNFSF15; biotinylated human TL1A
T2 sequence (looked up): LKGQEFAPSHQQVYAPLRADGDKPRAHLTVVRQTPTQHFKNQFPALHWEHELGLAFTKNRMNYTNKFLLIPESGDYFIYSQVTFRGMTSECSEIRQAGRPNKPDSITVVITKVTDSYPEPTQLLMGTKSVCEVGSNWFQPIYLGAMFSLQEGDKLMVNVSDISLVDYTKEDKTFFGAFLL

T3: cynomolgus TL1A (endogenous, cynomolgus whole blood) (cynomolgus monkey, UniProt G7PRK8 1-251)
T3 sequence: T1 sequence (looked up) with R34C, L47V, F69L, A71D, F110L, I149V

B1: clone 23, modified IgG1 / kappa (antibody)
heavy: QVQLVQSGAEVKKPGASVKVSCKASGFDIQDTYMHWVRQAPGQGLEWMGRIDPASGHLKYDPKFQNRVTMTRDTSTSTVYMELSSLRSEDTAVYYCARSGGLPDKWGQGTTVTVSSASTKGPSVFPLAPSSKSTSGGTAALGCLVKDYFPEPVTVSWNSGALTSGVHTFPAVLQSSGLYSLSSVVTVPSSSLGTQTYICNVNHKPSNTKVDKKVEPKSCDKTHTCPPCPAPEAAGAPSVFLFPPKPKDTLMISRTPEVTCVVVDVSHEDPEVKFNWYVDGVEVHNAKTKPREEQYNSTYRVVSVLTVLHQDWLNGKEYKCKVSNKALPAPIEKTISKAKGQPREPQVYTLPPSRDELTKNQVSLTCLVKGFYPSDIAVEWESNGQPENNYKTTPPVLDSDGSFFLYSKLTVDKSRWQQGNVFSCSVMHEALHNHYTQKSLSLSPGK
light: EIVLTQSPGTLSLSPGERATLSCRASSSVSYMYWYQQKPGQAPRLLIYATSNLASGIPDRFSGSGSGTDFTLTISRLEPEDFAVYYCQQWEGNPRTFGGGTKLEIKRTVAAPSVFIFPPSDEQLKSGTASVVCLLNNFYPREAKVQWKVDNALQSGNSQESVTEQDSKDSTYSLSSTLTLSKADYEKHKVYACEVTHQGLSSPVTKSFNRGEC
B2: clone 14, IgG2 / kappa (antibody)
heavy: QVQLVQSGAEVKKPGASVKVSCKASGFDIQDTYMHWVRQAPGQGLEWMGRIDPASGHIKYDPKFQKRVTMTRDTSTSTVYMELSSLRSEDTAVYYCARSGGLPDMWGQGTTVTVSSASTKGPSVFPLAPCSRSTSESTAALGCLVKDYFPEPVTVSWNSGALTSGVHTFPAVLQSSGLYSLSSVVTVPSSNFGTQTYTCNVDHKPSNTKVDKTVERKCCVECPPCPAPPVAGPSVFLFPPKPKDTLMISRTPEVTCVVVDVSHEDPEVQFNWYVDGVEVHNAKTKPREEQFNSTFRVVSVLTVVHQDWLNGKEYKCKVSNKGLPAPIEKTISKTKGQPREPQVYTLPPSREEMTKNQVSLTCLVKGFYPSDIAVEWESNGQPENNYKTTPPMLDSDGSFFLYSKLTVDKSRWQQGNVFSCSVMHEALHNHYTQKSLSLSPGK
light: B1 light with E91Q
B3: clone 53, modified IgG1 / kappa (antibody, V domains shown)
VH: QVQLVQSGAEVKKPGASVKVSCKASGFDIQDTYMHWVRQAPGQGLEWMGRIEPASGHLKYDPKFQERVTMTRDTSTSTVYMELSSLRSEDTAVYYCARSGGLPDKWGQGTTVTVSS
VL: EIVLTQSPGTLSLSPGERATLSCRASSSVSYMYWYQQKPGQAPRLLIYATSNLASGIPDRFSGSGSGTDFTLTISRLEPEDFAVYYCQQWEGNPRTFGGGTKLEIKR
B4: clone 34, modified IgG1 / kappa (antibody)
heavy: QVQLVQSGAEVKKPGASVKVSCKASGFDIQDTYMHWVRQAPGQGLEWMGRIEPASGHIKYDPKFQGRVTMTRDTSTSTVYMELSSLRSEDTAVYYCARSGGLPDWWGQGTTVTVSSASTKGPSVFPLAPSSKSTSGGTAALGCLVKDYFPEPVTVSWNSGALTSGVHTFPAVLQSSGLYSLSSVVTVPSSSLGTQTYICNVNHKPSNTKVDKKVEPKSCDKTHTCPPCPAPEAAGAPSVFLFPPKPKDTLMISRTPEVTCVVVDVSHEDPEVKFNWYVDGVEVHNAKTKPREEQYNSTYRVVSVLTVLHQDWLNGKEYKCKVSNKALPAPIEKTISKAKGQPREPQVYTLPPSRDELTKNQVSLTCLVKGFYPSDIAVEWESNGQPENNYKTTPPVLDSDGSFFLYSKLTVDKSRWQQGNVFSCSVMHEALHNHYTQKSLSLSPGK
light: B1 light
B5: clone 14, modified IgG1 / kappa (antibody)
heavy: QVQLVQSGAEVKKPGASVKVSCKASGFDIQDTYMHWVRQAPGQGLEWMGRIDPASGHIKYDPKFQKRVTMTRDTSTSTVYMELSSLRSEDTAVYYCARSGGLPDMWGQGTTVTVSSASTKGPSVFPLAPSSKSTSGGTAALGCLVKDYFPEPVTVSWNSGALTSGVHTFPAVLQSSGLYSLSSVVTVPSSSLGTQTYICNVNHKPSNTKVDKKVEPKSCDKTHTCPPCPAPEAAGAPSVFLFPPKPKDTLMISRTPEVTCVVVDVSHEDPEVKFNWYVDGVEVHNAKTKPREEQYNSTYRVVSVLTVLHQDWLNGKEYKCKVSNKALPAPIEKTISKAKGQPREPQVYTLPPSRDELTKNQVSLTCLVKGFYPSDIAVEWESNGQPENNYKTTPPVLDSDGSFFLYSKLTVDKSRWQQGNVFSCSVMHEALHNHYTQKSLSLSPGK
light: B1 light with E91Q
B6: L8 (CDR graft) Fab (Fab, V domains shown)
VH: B3 VH with E52D, L58T, E66V, K105V
VL: EIVLTQSPGTLSLSPGERATLSCRASSSVSYMYWYQQKPGQAPRLLIYATSNLASGIPDRFSGSGSGTDFTLTISRLEPEDFAVYYCQQWSGNPRTFGGGTKLEIK
notes: Fab; also called CDR graft clone L8; CDR-grafted variant
B7: L3-4 (S92Q) Fab (Fab, V domains shown)
VH: B3 VH with E52D, L58T, E66V, K105V
VL: B6 VL with S91Q
notes: Fab; also called 18-7 S92Q light chain with 21-3 heavy chain
B8: H3-7 (V102K) Fab (Fab, V domains shown)
VH: B3 VH with E52D, L58T, E66V
VL: B6 VL
notes: Fab; also called 21-3 V102K heavy chain with 18-7 light chain
B9: H3-7 (V102M) Fab (Fab, V domains shown)
VH: B3 VH with E52D, L58T, E66V, K105M
VL: B6 VL
notes: Fab; also called 21-3 V102M heavy chain with 18-7 light chain
B10: L3-4 (S92N) Fab (Fab, V domains shown)
VH: B3 VH with E52D, L58T, E66V, K105V
VL: B6 VL with S91N
notes: Fab; also called 18-7 S92N light chain with 21-3 heavy chain
B11: H3-7 (V102W) Fab (Fab, V domains shown)
VH: B3 VH with E52D, L58T, E66V, K105W
VL: B6 VL
notes: Fab; also called 21-3 V102W heavy chain with 18-7 light chain
B12: H3-7 (V102Q) Fab (Fab, V domains shown)
VH: B3 VH with E52D, L58T, E66V, K105Q
VL: B6 VL
notes: Fab; also called 21-3 V102Q heavy chain with 18-7 light chain
B13: L3-4 (S92E) Fab (Fab, V domains shown)
VH: B3 VH with E52D, L58T, E66V, K105V
VL: B6 VL with S91E
notes: Fab; also called 18-7 S92E light chain with 21-3 heavy chain
B14: L3-4 (S92H) Fab (Fab, V domains shown)
VH: B3 VH with E52D, L58T, E66V, K105V
VL: B6 VL with S91H
notes: Fab; also called 18-7 S92H light chain with 21-3 heavy chain
B15: L3-4 (S92D) Fab (Fab, V domains shown)
VH: B3 VH with E52D, L58T, E66V, K105V
VL: B6 VL with S91D
notes: Fab; also called 18-7 S92D light chain with 21-3 heavy chain
B16: 12835 (humanized 5C3D11) antibody, IgG format (antibody, V domains shown)
VH: B3 VH with V20L, E52D, L58T, E66V, R72T, A97S, K105V
VL: B6 VL with A19V, L21M, L45P, L46W, I57V, F70Y
B17: murine 5C3D11 monoclonal antibody (antibody, V domains shown)
VH: EVQLQQSGAELVKPGASVKLSCTASGFDIQDTYMHWVKQRPEQGLEWIGRIDPASGHTKYDPKFQVKATITTDTSSNTAYLQLSSLTSEDTAVYYCSRSGGLPDVWGAGTTVTVSS
VL: QIVLSQSPAILSASPGEKVTMTCRASSSVSYMYWYQQKPGSSPKPWIYATSNLASGVPDRFSGSGSGTSYSLTISRVEAEDAATYYCQQWSGNPRTFGGGTKLEIK
B18: 1D1 anti-TL1A antibody (antibody, V domains shown)
VH: QVQLVQSGAEVKKPGASVKVSCKASGYDFTYYGISWVRQAPGQGLEWMGWISTYNGNTHYARMLQGRVTMTTDTSTRTAYMELRSLRSDDTAVYYCARENYYGSGAYRGGMDVWGQGTTVTVSS
VL: EIVLTQSPATLSLSPGERATLSCRASQSVSSYLAWYQQKPGQAPRLLIYDASNRATGIPARFSGSGSGTDFTLTISSLEPEDFAVYYCQQRSNWPWTFGQGTKVEIK

What follows are binders tested against T1, human TL1A (endogenous, human whole …) (assay: cell-based or functional assay).

Row | Binder | IC50, inhibition of IFN-γ production, human whole blood assay
1 | B1 | 410 pM
2 | B2 | 350 pM
3 | B3 | 390 pM
4 | B4 | 180 pM
5 | B5 | 190 pM

What follows are binders tested against T2, human TL1A (Fitzgerald, Prod. …) (assay: capture lift hit at 200 pM b-TL1A, unmutated sequence).

Row | Binder | binding result
6 | B6 | binds

The binders below were run against T2, human TL1A (Fitzgerald, Prod. …) (assay: ELISA).

Row | Binder | binding result
7 | B7 | binds
8 | B8 | binds
9 | B9 | binds
10 | B10 | binds
11 | B11 | binds
12 | B12 | binds
13 | B13 | binds
14 | B14 | binds
15 | B15 | binds

Biological target: T1, human TL1A (endogenous, human whole …)
Assay: cell-based or functional assay
Remark: another data set of the same source

Row | Binder | fold greater potency towards human TL1A than cynomolgus TL1A, whole blood assays | IC50, inhibition of IFN-γ production, human whole blood assay
16 | B3 | ~2 fold | 
17 | B16 |  | 9280 pM
18 | B17 |  | 1380 pM

What follows are binders tested against T3, cynomolgus TL1A (endogenous, cynomolgus …) (assay: cell-based or functional assay).

Row | Binder | Potency (IC50, nM), cynomolgus whole blood assay, mean
19 | B1 | 0.72 nM
20 | B3 | 1.32 nM
21 | B4 | 0.21 nM
22 | B5 | 0.28 nM
23 | B17 | 0.18 nM

Biological target: T1, human TL1A (endogenous, human whole …)
Assay: cell-based or functional assay
Remark: another data set of the same source

Row | Binder | Potency (IC50, nM), human whole blood assay, mean
24 | B1 | 0.64 nM
25 | B3 | 0.59 nM
26 | B4 | 0.24 nM
27 | B5 | 0.3 nM
28 | B18 | 0.27 nM
